Laboratory results from PMC11638888 (2024).

B1: mCherry-MYO10-SLC26A4-Ct (NanoSPD bait) [mouse] / μ2-MID-EGFP (NanoSPD prey) [mouse] (parent complex)
chain 1: RVQFPSWNGLGSVPSTDIYKSITHYKNLEEPEGVKILRFSSPIFYGNVDGFKKCINSTVGFDAIRVYNKRLKALRRIQKLIKKGQLRATKNGIISDIGSSNNAFEPDEDVEEPEELNIPTKEIEIQVDWNSELPVKVNVPKVPIHSLVLDCGAVSFLDVVGVRSLRMIVKEFQRIDVNVYFALLQDDVLEKMEQCGFFDDNIRKDRFFLTVHDAILHLQNQVKSREGQDSLLETVARIRDCKDPLDLMEAEMNAEELDVQDEAMRRLAS
chain 2: SETGALKTFITQQGIKSQHQTKEEQSQITSQVTGQIGWRREGIKYRRNELFLDVLESVNLLMSPQGQVLSAHVSGRVVMKSYLSGMPECKFGMNDKIVIEKQGKGTADETSKSGKQSIAIDDCTFHQCVRLSKFDSERSISFIPPDGEFELMRYRTTKDIILPFRVIPLVREVGRTKLEVKVVIKSNFKPSLLAQKIEVRIPTPLNTSGVQVICMKGKAKYKASENAIVWKIKRMAGMKESQISAEIELLPTNDKKKWARPPISMNFEVPFAPSGLKVRYLKVFEPKLNYSDHDVIKWVRYIGRSGIYETRC

Variants of: B1
Assay: NanoSPD assay; HeLa cells; mean of biological replicate means; parent: 2.7e+03; read off a plot

Row | response | Variant
1 | ~530 A.U. | chain 1 RVQFPSWNGLGSVPSTDIAKSITHYKNLEEPEGVKILRFSSPIFAGNVDGFKKCINSTVGFDAIRVYNKRLKALRRIQKLIKKGQLRATKNGIISDIGSSNNAFEPDEDVEEPEELNIPTKEIEIQVDWNSELPVKVNVPKVPIHSLVLDCGAVSFLDVVGVRSLRMIVKEFQRIDVNVAFALLQDDVLEKMEQCGFFDDNIRKDRFFLTVHDAILHLQNQVKSREGQDSLLETVARIRDCKDPLDLMEAEMNAEELDVQDEAMRRLAS [chain 1 Y19A, chain 1 Y45A, chain 1 Y180A]
2 | ~210 A.U. | chain 1 RVQFPSWNGLGSVPSTDIAKSITHAKNLEEPEGVKILRFSSPIFAGNVDGFKKCINSTVGFDAIRVYNKRLKALRRIQKLIKKGQLRATKNGIISDIGSSNNAFEPDEDVEEPEELNIPTKEIEIQVDWNSELPVKVNVPKVPIHSLVLDCGAVSFLDVVGVRSLRMIVKEFQRIDVNVAFALLQDDVLEKMEQCGFFDDNIRKDRFFLTVHDAILHLQNQVKSREGQDSLLETVARIRDCKDPLDLMEAEMNAEELDVQDEAMRRLAS [chain 1 Y19A, chain 1 Y25A, chain 1 Y45A, chain 1 Y180A]
3 | ~190 A.U. | chain 1 RVQFPSWNGLGSVPSTDIYKSITHAKNLEEPEGVKILRFSSPIFYGNVDGFKKCINSTVGFDAIRVYNKRLKALRRIQKLIKKGQLRATKNGIISDIGSSNNAFEPDEDVEEPEELNIPTKEIEIQVDWNSELPVKVNVPKVPIHSLVLDCGAVSFLDVVGVRSLRMIVKEFQRIDVNVYFALLQDDVLEKMEQCGFFDDNIRKDRFFLTVHDAILHLQNQVKSREGQDSLLETVARIRDCKDPLDLMEAEMNAEELDVQDEAMRRLAS [chain 1 Y25A]

Variants of: B1
Assay: NanoSPD assay; HeLa cells; mean of biological replicate means; parent: 1.3e+04; read off a plot

Row | response | Variant
4 | ~2000 A.U. | chain 1 RVQFPSWNGLGSVPSTDIYKSITHYKNAEEPEGVKILRFSSPIFYGNVDGFKKCINSTVGFDAIRVYNKRLKALRRIQKLIKKGQLRATKNGIISDIGSSNNAFEPDEDVEEPEELNIPTKEIEIQVDWNSELPVKVNVPKVPIHSLVLDCGAVSFLDVVGVRSLRMIVKEFQRIDVNVYFALLQDDVLEKMEQCGFFDDNIRKDRFFLTVHDAILHLQNQVKSREGQDSLLETVARIRDCKDPLDLMEAEMNAEELDVQDEAMRRLAS [chain 1 L28A]
